For data set [1], the target named is T1, Ets-1 (rhEts-1) (human, UniProt P14921 1-441).
T1 sequence: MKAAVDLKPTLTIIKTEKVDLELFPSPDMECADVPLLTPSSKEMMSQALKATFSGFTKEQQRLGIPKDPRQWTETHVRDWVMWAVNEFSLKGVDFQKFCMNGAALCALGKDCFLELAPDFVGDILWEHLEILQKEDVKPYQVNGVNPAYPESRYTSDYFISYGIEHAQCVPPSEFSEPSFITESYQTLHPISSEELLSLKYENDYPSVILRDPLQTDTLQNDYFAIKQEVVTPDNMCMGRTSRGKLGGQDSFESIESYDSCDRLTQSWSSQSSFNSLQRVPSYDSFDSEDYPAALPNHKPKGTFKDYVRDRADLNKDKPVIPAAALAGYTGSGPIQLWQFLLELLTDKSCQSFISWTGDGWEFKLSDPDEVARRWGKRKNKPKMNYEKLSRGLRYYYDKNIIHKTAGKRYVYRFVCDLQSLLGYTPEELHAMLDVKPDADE
Briefly: competition.

In data set [2] the target is T1, Ets-1 (rhEts-1). Kind of data set: competition. The source holds these as a separate data set.
The target of data set [3] is T1, Ets-1 (rhEts-1). Briefly: EMSA.

B1: IL4P.1 (dsDNA)
DNA 1: GATTTCACAGGAACATTTTAC
DNA 2: GTAAAATGTTCCTGTGAAATC
For the molecule B1, in data set [1], the binding result is “no binding”.

B2: RHS5 (dsDNA)
DNA 1: GGTAACACAGGAAGTCAGCAG
DNA 2: CTGCTGACTTCCTGTGTTACC
In the case of B2, the binding result in data set [2] is given as “binds”.

B3: SC1_ETS1 (dsDNA)
DNA 1: CGGCCAAGCCGGAAGTGAGTGCC
DNA 2: GGCACTCACTTCCGGCTTGGCCG
On to B3, for which the binding result in data set [3] is listed as “binds”.

B4: IL13P (dsDNA)
DNA 1: GTTCGGGGAGGAAGTGGGTAG
DNA 2: CTACCCACTTCCTCCCCGAAC
As to B4, in data set [2], the binding result is recorded as “binds”.

B5: IL4P.2 (dsDNA)
DNA 1: TTTTCTCCTGGAAGAGAGGTG
DNA 2: CACCTCTCTTCCAGGAGAAAA
Take B5: in data set [1], the binding result was “no binding”.

(Values after paper PMC2809820.)
